Results from article PMC9436389 (Frontiers in Immunology, 2022).

Assays:
[1] = molecular target: EBOV GP[change] (unstabilised, ectodomain-only Ebola virus glycoprotein without mucin-like domain) (Ebola virus (Mayinga 1976 strain)) (UniProt Q05320); experiment: SEC
[2] = molecular target: NiV F[change] (recombinant NiV sF glycoprotein in its postfusion conformation) (Nipah virus); experiment: SEC

| Substance | stoichiometry N [1] | stoichiometry N [2] |
| --- | --- | --- |
| EBOV GP[change] (unstabilised, ectodomain-only Ebola virus glycoprotein without mucin-like domain) (from UniProt Q05320) (domain or fragment) | 3 |  |
| NiV F[change] (recombinant NiV sF glycoprotein in its postfusion conformation) (domain or fragment) |  | 3 |
